Consider three substances from US20100278829A1, “DUAL INHIBITION OF IMMUNOPHILIN/CYCLOPHILIN FAMILY MEMBERS AND EMMPRIN IMMUNOGLOBULIN RECEPTOR SUPERFAMILY MEMBERS” (priority 2009, published 2010).

Values joined by “and” are separate entries in the source; they are usually repeats but may differ in a detail not shown here. Equal values may be shown once.

The test system of experiment [1] is Human primary skin keratinocytes (Hka). Briefly: Cytokine stimulation of Hka, ECL and qRT-PCR readout. Format: cell-based. On the procedure:
Cell stimulation. Primary T-cells, H9 cells and Th22 cells (1×10^6 cells/ml) were stimulated with PMA (1 ng/ml) and lonomycin (500 ng/ml) for 18 hrs at 37° C. HKa were stimulated with TNFα (1 ng/ml), TNFα (10 ng/ml)+PEG sTNF-RI (10 μg/ml), IL-1β (10 ng/ml), IL-1β ng/ml+IL-1ra 10 µg/ml, IL-1β ng /ml+TNFα 10 ng/ml and IL-32α or IL-32β for 24 hrs. Hka were stimulated with activated H9 and primary T-cells for 24 hrs at 37° C. PEGsTNF-RI and IL-1ra was obtained from Amgen (Thousand Oaks, Calif.).
ECL. A polyclonal antibody produced in rabbits against recombinant IL-32γ was used for ECL. IgG was prepared with Econo-Pac and then affinity purified through IL-32-immobilized agarose bead column of Affi-gel 15. An aliquot of the affinity purified anti-IL-32γ antibody was labeled with biotin and another aliquot with ruthenium according to the manufacturer's instructions (BioVeris, Gaithersburg, Md.). […] The liquid-phase ECL method was used to measure TNFα, IL-1β, IL-6, IL-8 and IL-32γ in human primary keratinocytes cell culture media and cell lysates in 0.5% Triton-X. The amount of ECL was determined by using an Origen Analyzer (BioVeris).
Quantitative real-time quantitative polymerase chain reaction (TaqMan) analysis (qRT-PCR). […] The amount of cDNA added to each reaction was held to a relatively narrow range, determined by the measurement of 18S RNA. […]
For orientation: Quantitative PCR measures a nucleic acid by following its amplification.

The next experiment addresses T1, CD147 Pro211 (Homo sapiens, UniProt P35613).
T1 construct: both containing 0.5 mM ^15N-CD147^94-214 at 25° C; made in house
T1 sequence (P35613 94-214 isoform P35613-2): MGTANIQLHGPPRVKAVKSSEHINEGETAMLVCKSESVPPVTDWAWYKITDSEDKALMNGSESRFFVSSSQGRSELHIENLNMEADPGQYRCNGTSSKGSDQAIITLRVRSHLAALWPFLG
Nature of the experiment: ZZ-exchange NMR of CypA-mediated peptidyl-prolyl isomerization of CD147. In kind it is biochemical. The note with it: for kex (s−1), apparent catalytic exchange rate: [CD147^94-214]=0.5 mM. The method, then:
For ZZ-exchange experiments, the pulse scheme of Farrow et al. was employed with a selective adiabatic CHIRP pulse applied in the center of the mixing period for water suppression. (69) Two data sets were collected at 720 MHz on two samples with either 0.01 or 0.05 mM CypA and both containing 0.5 mM ^15N-CD147^94-214 at 25° C. and analyzed as previously described to calculate the apparent cis/trans exchange rate (kex). […] Equations (1a), (1b), (1c), and (1d) below were used to simultaneously fit the auto trans peak (Itt), the auto cis peak (Icc), the trans→cis exchange peak (Itc) and the cis→trans exchange peak (Ict), respectively, as a function of τm·Itt(0) and Icc(0) are the initial intensities of the trans and cis auto peaks, respectively, a11=R1t+ktc, a22=R1c+kct, a21=−ktc, and a12=−kct. Finally, under these conditions, ktc and kct can be recast as a function of their free Keq (Pcis/Ptrans=0.33/0.67), and thus, ktc=0.33 kex and kct=0.67 kex.
GraphPad Prism version 4.0 (GraphPad Software Inc., San Diego, Calif.) was used to simultaneously fit all resolvable peaks within CD147 residues 207-214.
ZZ-exchange was used to determine the apparent catalytic exchange rate of CypA-mediated peptidyl-prolyl isomerization of CD147 Pro211, providing a quantitative analysis of the active CypA/CD147 complex (FIG. 49). Specifically, two ZZ-exchange experiments were collected using identical concentrations of 0.5 mM 15N-CD147^94-214 but with two substoichiometric concentrations of the enzyme (i.e., catalytic concentrations) of 0.01 mM (FIG. 49A) and 0.05 mM (FIG. 49B) CypA. Under each condition, the apparent exchange rate (kex), which is the sum of the apparent cis-trans (i.e., kct) and […] (i.e., ktc) catalytic rates, was determined to quantify the rate enhancement of CypA-mediated catalysis (Table 1).

On to “rhuIL-1β: recombinant human IL-1β (R&D Systems) used as inflammatory stimulus”, for which the “induction of cytoplasmic IL-32γ in Hka” value in experiment [1] (ECL, cell lysates, +48 hours culture) was “induced highly significant (P<0.001) levels”.
As to “IL1ra: recombinant human IL-1 receptor antagonist (Amgen)”, in experiment [1] (qRT-PCR, FIG. 36), the “reversal of IL1β/TNFα-induced IL32γ gene expression in Hka” value is “reversed”.
Regarding “CypA: recombinant cyclophilin A, peptidyl-prolyl isomerase enzyme ligand of CD147”, the “kct (cis→trans catalytic rate)” value with CD147 Pro211 (CypA:CD147 ratio of 1:10) stood at 40 s⁻¹. For the same substance, in the experiment with CD147 Pro211 (CypA:CD147 ratio of 1:10), the “ktc (trans→cis catalytic rate)” value is 20 s⁻¹. The “kex (s−1), apparent catalytic exchange rate” value in the experiment with CD147 Pro211 ([CypA]=0.01 mM, 25° C.) stood at 9.6 ± 3.5 s⁻¹; in the experiment with CD147 Pro211 ([CypA]=0.05 mM, 25° C.), 44.3 ± 8.1 s⁻¹. The “kex extrapolated to the 1:1 / fully bound complex” value with CD147 Pro211 (extrapolated with the peptide Kd, 25° C.) was ~6000 s⁻¹ and 4000 to 4800 s⁻¹. Besides, in the experiment with CD147 Pro211 (substoichiometric CypA concentrations), the “kex (=kct+ktc)” value was around 60 s⁻¹.
